Results published in patent publication US20240417475A1.

Assays:
[1] = target: CD16A endogenously expressed on primary human NK cells (human) (UniProt P08637); test: flow cytometry on primary human NK cells, biotinylated antibody, 37 C, without IgG, mean of 4
[2] = target: human CD16A-mFc (158F) (sAg_107) (human) (UniProt P08637); test: ELISA, plate coated with human CD16A-mFc (158F), anti-mouse HRP detection, A450
[3] = target: human CD16A-mFc (158F) (sAg_107) (human) (UniProt P08637); test: ELISA, plate coated with human CD16A-mFc (158F) (sAg_107), one-site fit, mean of 3
[4] = target: CD16A endogenously expressed on primary human NK cells (human) (UniProt P08637); test: flow cytometry on primary human NK cells at 37 °C, biotinylated antibody, streptavidin-FITC, without polyclonal human IgG
[5] = target: CD16A endogenously expressed on primary human NK cells (human) (UniProt P08637); test: flow cytometry on primary human NK cells, biotinylated antibody, 37 C, with 10 mg/mL polyclonal human IgG as competitor, mean of 4
[6] = target: human CD16A-mFc (158V) (sAg_149) (human) (UniProt P08637); test: ELISA, plate coated with human CD16A-mFc (158V), anti-mouse HRP detection, A450
human CD16A-mFc (158V) (sAg_149) (human), sequence (P08637 17-208 F176V limits assumed): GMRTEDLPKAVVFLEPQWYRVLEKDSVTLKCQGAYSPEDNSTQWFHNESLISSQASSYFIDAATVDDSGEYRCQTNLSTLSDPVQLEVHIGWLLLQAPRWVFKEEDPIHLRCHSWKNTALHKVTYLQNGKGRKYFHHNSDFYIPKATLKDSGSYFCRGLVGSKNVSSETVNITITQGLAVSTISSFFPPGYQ

CD16A endogenously expressed on primary human NK cells (human), sequence (P08637 17-254 limits assumed): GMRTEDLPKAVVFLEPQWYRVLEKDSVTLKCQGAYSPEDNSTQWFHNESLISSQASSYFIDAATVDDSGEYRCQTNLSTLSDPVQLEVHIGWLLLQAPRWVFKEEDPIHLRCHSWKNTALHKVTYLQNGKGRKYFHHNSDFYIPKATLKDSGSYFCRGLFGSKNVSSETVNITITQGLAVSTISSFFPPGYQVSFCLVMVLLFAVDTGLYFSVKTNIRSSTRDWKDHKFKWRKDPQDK
human CD16A-mFc (158F) (sAg_107) (human), sequence (P08637 17-208 limits assumed): as the sequence (P08637 17-208 F176V limits assumed) above, with V160F counted along it

Kd [1]: 0.3 nM
EC50 (read off the curve) [2]: 0.03 nM
Kd [3]: 0.02 nM
EC50 (read off the curve) [4]: 0.3 nM
Kd [5]: 54.6 nM
EC50 (read off the curve) [6]: 0.2 nM
Substance: anti-human CD16 antibody clone 3G8
